The text below walks through data of US20100041074A1 (FORERUNNER PHARMA RESEARCH, published 2010).

Assay [1] addresses T1, GRP78 expressed in human cells (cell lysate) (human, UniProt P11021 19-654).
T1 construct: Endogenous GRP78 in lysates of human cell lines (DU145, MRC5 and others) after SDS-PAGE and blotting; also called GRP78 expressed in DU145 cells; GRP78 protein in cell lysates
The experiment in a line: western blot of cell lysates of human cell lines with GD-17 antibody (2 µg/ml). Background: A western blot detects proteins with antibodies after separation by electrophoresis.

Assay [2] concerns the target T2, GRP78 expressed in mouse cells (Ba/F3, NIH3T3), cell lysate (mouse, UniProt P20029 20-655). The assay can be described thus: western blot of cell lysates of mouse cell lines with GD-17 antibody (2 µg/ml).
The target of assay [3] is T3, GRP78 localized on the cell surface of human cancer cells (human, UniProt P11021 19-654).
T3 construct: Endogenous GRP78 on untransfected human cancer cell lines (DU145, 22Rv1, LoVo, LNcap, MCF7 and others); also called GRP78 on the surface of DU145 cells; surface-located GRP78
The experiment in a line: FACS on prostate cancer cell lines DU145 and 22Rv1, hybridoma culture supernatant.

The target of another assay is MBP-GRP78 (376-415) (human, UniProt G3I8R9 376-415 (Cricetulus griseus entry)). The experiment in a line: ELISA, plate coated with MBP-GRP78 (376-415) (1 µg/ml), hybridoma culture supernatant. (An ELISA detects its analyte on a solid surface through an enzyme-linked reagent.)
The target of assay [4] is T3, GRP78 localized on the cell surface of …. The experiment in a line: cell-based or functional assay.
Assay [5] addresses T4, GST fused GRP78 protein (GST-GRP78) purified from E. coli (human, UniProt P11021 19-654).
T4 construct: also called GRP78-GST fused protein; not shown: glutathione S-transferase (GST) encoded by the E. coli expression vector pGEX-6P-1 (Amersham Pharmacia), with the vector
The assay can be described thus: ELISA, plate coated with GST-GRP78 (1 µg/ml), anti-flag detection; same value told for specimens stored at 4° C., left at 37° C. overnight, or frozen and thawed.

The target of assay [6] is T3, GRP78 localized on the cell surface of …. The experiment in a line: FACS on DU145 cells, antibody 10 µg/ml.
For assay [7], the target named is T1, GRP78 expressed in human cells (cell …). The experiment in a line: western blot, DU145 cell lysate, antibody 2 µg/ml.
For assay [8], the target named is T4, GST fused GRP78 protein (GST-GRP78) …. The experiment in a line: western blot, GST fused GRP78 protein (0.1 ug), antibody 2 µg/ml.
Another assay has as its target T5, GST-GRP78 (376-415) (human, UniProt G3I8R9 376-415 (Cricetulus griseus entry)).
T5 construct: not shown: glutathione S-transferase (GST) encoded by the E. coli expression vector pGEX-6P-1, with the vector's linker
The experiment in a line: western blot of GST fused GRP78 fragments (345-385, 376-415, 406-445).

For assay [9], the target named is GRP78 expressed in hamster ovary cells (DG44), cell lysate (hamster, UniProt G3I8R9 19-654). The experiment in a line: western blot of NP40 lysate of DG44 cells with GA-20 antibody (2 µg/ml).
Assay [10] deals with T2, GRP78 expressed in mouse cells (Ba/F3, …). The assay can be described thus: western blot of NP40 lysates of Ba/F3 and NIH3T3 cells with GA-20 antibody (2 µg/ml).
The target in assay [11] is T6, GRP78 protein (amino acids 19-654) purified from E. coli (human, UniProt P11021 19-654).
T6 construct: Cut from the GST fusion with PreScission Protease and gel filtered; also called glucose-regulated protein 78; BiP
The experiment in a line: ELISA, plate coated with GRP78 protein purified from E. coli, hybridoma culture supernatant.

In assay [12] the target is T4, GST fused GRP78 protein (GST-GRP78) …. The experiment in a line: ELISA, plate coated with GST-GRP78 (1 µg/ml), HisTrap fractions diluted 40-fold, anti-flag detection.

B1: GD-17 antibody (antibody, IgG1, V domains shown)
VH: QVQLQQSGAELARPGASVKLSCKASGYTFTSYWMHWVKQRPGQGLEWIGAIYPGDGDTRYTQKFKGKATLTADKSSSTAYMQLSSLASEDSAVYYCASGITAVADYWGQGTTLTVSS
VL: DVVMTQTPLSLPVSLGDQASISCRSSQSLVHSNGNTYLHWYLQKPGQSPKLLIYKVSNRFSGVPDRFSGSGSGTDFTLKISRVEAEDLGVYFCSQSTHVPLTFGAGTKLELK
notes: Mouse monoclonal from hybridoma, subtype G1 (IgG1)
For B1, the binding result (in assay [1]; in assay [2]; in assay [3]; with MBP-GRP78 (376-415)) was “binds” in each case.

B2: toxin-labeled GD17 single-chain antibody (GD17scFv-PE40) (scFv)
scFv: MDHHHHHHHHHHKLQVQLQQSGAELARPGASVKLSCKASGYTFTSYWMHWVKQRPGQGLEWIGAIYPGDGDTRYTQKFKGKATLTADKSSSTAYMQLSSLASEDSAVYYCASGITAVADYWGQGTTLTVSSGGGGSGGGGSGGGGSDVVMTQTPLSLPVSLGDQASISCRSSQSLVHSNGNTYLHWYLQKPGQSPKLLIYKVSNRFSGVPDRFSGSGSGTDFTLKISRVEAEDLGVYFCSQSTHVPLTFGAGTKLELKEFGGAPEFPKPSTPPGSSGLEGGSLAALTAHQACHLPLETFTRHRQPRGWEQLEQCGYPVQRLVALYLAARLSWNQVDQVIRNALASPGSGGDLGEAIREQPEQARLALTLAAAESERFVRQGTGNDEAGAANADVVSLTCPVAAGECAGPADSGDALLERNYPTGAEFLGDGGDVSFSTRGTQNWTVERLLQAHRQLEERGYVFVGYHGTFLEAAQSIVFGGVRARSQDLDAIWRGFYIAGDPALAYGYAQDQEPDARGRIRNGALLRVYVPRSSLPGFYRTSLTLAAPEAAGEVERLIGHPLPLRLDAITGPEEEGGRLETILGWPLAERTVVIPSAIPTDPRNVGGDLDPSSIPDKEQAISALPDYASQPGKPPDYKDDDDKKDEL
notes: also called GA17_scFv-PE40
B2: in assay [4], the “cytotoxic activity, EC50 on MCF7 and 22Rv1 cells” value was in the range of 2 to 4 nM. Moreover, the EC50 in assay [5] is around 1.3 nM.

B3: GA-20 antibody (antibody, IgM, V domains shown)
VH: EVQLQQSGPELVKPGASVKISCKTSGYTFTEYTMHWVKQSHGKSLEWIGGINPNNGGTSYNQKFKGKATLTVDKSSSTAYMELRSLTSEDSAVYYCAREKYGNYYAMDYWGQGTSVTVSS
VL: DIVMSQSPSSLAVSAGEKVTMSCKSSQSLLNSRTRKNYLAWYQQKPGQSPKLLIYWASTRESGVPDRFTGSGSGTDFTLTISSVQAEDLAVYYCKQSYNLRTFGGGTKLEIK
notes: Mouse monoclonal from hybridoma, subtype M (IgM); light chain cloned with a kappa primer
B3: the binding result (in [6]; in [7]; in assay [8]; with GST-GRP78 (376-415); in assay [9]; in assay [10]) was “binds” in each case. The binding result in assay [11] is listed as “binds”.

B4: GC-18 antibody (antibody, IgG1, V domains shown)
VH: DVRLQESGPGQVKPSQTVSLTCSVTGYSITNGNHWWNWIRQVSGSKLEWIGYISSSGSTDSNPSLKSRISITRDTSKNQLFLQLNSVTTEDIATYYCARGYYFDYWGQGTTLTVSS
VL: DIVLTQSPASLAVSLGQSVTISCRASESVEYYGTSLMQWYQQKPGQPPKLLIYATSNVESGVPARFSGSGSGTDFSLNIHPVEEDDIAMYFCQQSRKLPSTFGGGTKLEIK
notes: as for B1
B4: the binding result (in assay [3]; with MBP-GRP78 (376-415)) was “binds” throughout.

B5: GD-4 antibody (antibody, IgG1, V domains shown)
VH: EVQLVETGGGLVQPKGSLKLSCAASGFTFNTNAMNWVRQAPGKGLEWVARIRSKSNNYAAYYADSVKDRFTISRDDSQSMLYLQMNNLKTEDTAMYYCVREGYGYSLYFDYWGQGTTLTVSS
VL: DIVMTQSPTFLAVTASKKVTINCTASESLYSSKHKVHYLAWYQKKPDQSPKLLIYGASNRYIGVPDRFTGSGSGTDFTLTISSVQVEDLTHYYCAQFYSYPLTFGAGTKLELK
notes: as for B1
Turning to B5, the binding result (in assay [3]; with MBP-GRP78 (376-415)) was “binds” throughout.

B6: toxin-labeled GA-20 single-chain Fv antibody (GA20-PE40) (scFv)
scFv: MDHHHHHHHHHHKLEVQLQQSGPELVKPGASVKISCKTSGYTFTEYTMHWVKQSHGKSLEWIGGINPNNGGTSYNQKFKGKATLTVDKSSSTAYMELRSLTSEDSAVYYCAREKYGNYYAMDYWGQGTSVTVSSGGGGSGGGGSGGGGSDIVMSQSPSSLAVSAGEKVTMSCKSSQSLLNSRTRKNYLAWYQQKPGQSPKLLIYWASTRESGVPDRFTGSGSGTDFTLTISSVQAEDLAVYYCKQSYNLRTFGGGTKLEIKEFGGAPEFPKPSTPPGSSGLEGGSLAALTAHQACHLPLETFTRHRQPRGWEQLEQCGYPVQRLVALYLAARLSWNQVDQVIRNALASPGSGGDLGEAIREQPEQARLALTLAAAESERFVRQGTGNDEAGAANADVVSLTCPVAAGECAGPADSGDALLERNYPTGAEFLGDGGDVSFSTRGTQNWTVERLLQAHRQLEERGYVFVGYHGTFLEAAQSIVFGGVRARSQDLDAIWRGFYIAGDPALAYGYAQDQEPDARGRIRNGALLRVYVPRSSLPGFYRTSLTLAAPEAAGEVERLIGHPLPLRLDAITGPEEEGGRLETILGWPLAERTVVIPSAIPTDPRNVGGDLDPSSIPDKEQAISALPDYASQPGKPPDYKDDDDKKDEL
notes: also called GA20scFv-PE40; toxin-labeled GA-20 scFv antibody
As to B6, the binding result in [12] is reported as “binds”.

As a reminder, the EC50 is the concentration at which the effect is half-maximal. Read a low EC50 as a more potent agent.
